In the assay the target is V90A, W100A, or E145A mutation of hCD112R (hCD112R-ECD-mFc variants, as a group). The experiment in a line: SPR, multi-cycle, H733-hIgG4 captured by anti-hFc Ab, hCD112R-ECD-mFc variants as analytes (3.125-100 nM).

The values that follow come from patent US20260152555A1 (HUAHUI HEALTH, published 2026).

B1: H733 (humanized Ab composed of 733-VH-humanV2 and 733-VL-human-C91S) (antibody, human IgG4, V domains shown)
VH: QVQLVQSGAEVKKPGASVKVSCKASGYTFTNYLIEWVRQAPGQGLEWMGVINPGHGFTNYAQKFQGRVTMTRDTSTSTVYMELSSLRSEDTAVYYCARGEWDWYFDVWGQGTTVTVSS
VL: DIQLTQSPSFLSASVGDRVTITCKASQNVGTAVAWYQQKPGKAPKLLIYSTSNRYTGVPSRFSGSGSGTEFTLTISSLQPEDFATYYCQQSSSYPFTFGGGTKVEIK
notes: also called H733-hIgG4; H733 mAb (hIgG4 form)
As for B1, the fold decrease of binding as compared with WT hCD112R fell in the range of 4 to 15 fold.
